Results published in US20100222256A1.

Target: CXCR4 ligand
Test: cell-based or functional assay

Question: T140 (peptide) was tested. Which EC50 (nM): anti-HIV activity, concentration where MT-4 cell death by HIV-1 (IIIB) infection is inhibited by 50% (MTT method) did it give?
Answer: The EC50 (nM): anti-HIV activity, concentration where MT-4 cell death by HIV-1 (IIIB) infection is inhibited by 50% (MTT method) was 3.3 nM.
